Bridges are numbered along the chain shown (N, C = ends).
How the values were obtained:
[1] = tested on: NF-κB; assay: Inflammation assay: NF-κB inducible SEAP reporter in RAW-Blue macrophages stimulated with PAM3CSK4; format: cell-based, murine; details: % inhibition relative to positive control
Protocol: Compounds 132, 133, 135, 150, 152, 157-161, 265-269, 275, 277, and 278 were evaluated for their ability to inhibit inflammation. To determine the effect of the peptides on inflammation, commercially available murine RAW 264.7 macrophages carrying a secreted embryonic alkaline phosphatase (SEAP) reporter that is inducible by NF-κB (RAW-Blue; InvivoGen, San Diego, Calif., USA) were used. Cells were grown to 80% confluence in DMEM containing 4.5 g/L glucose, 10% heat-inactivated fetal bovine serum, 2 mM L-glutamine, 50 μg/mL penicillin/streptomycin, 100 μg/mL Normocin (InvivoGen) at 37° C. in 5% CO2. For peptide screening experiments, cells were scraped in growth medium, counted, and plated to flat-bottom 96-well plates at a density of 5×10^4 cells/well either in the presence or absence (control) of 200 ng/mL TLR1/TLR2 agonist PAM3CSK4 (InvivoGen). Peptides were added in 6 replicate wells at a dose of 10 ng/mL in the presence of PAM3CSK4. After 18 hours of stimulation, SEAP concentrations (indicating NF-κB activity) were measured in the supernatants collected from the RAW-Blue cells using QUANTI-BLUE reagent (InvivoGen). After 20 minutes of incubation at 37° C., SEAP levels were determined using spectrophotometry at a wavelength of 630 nm.
Values are the mean and SDM of n=3 replicates. *p<0.05 and ***p<0.001 compared to +PAM3. In FIGS. 44 and 45, where bars are labeled with two compound numbers (“133/150” and “135/152”) this means that the data were pooled for the indicated compounds, i.e., for the non-acetylated and acetylated versions of the indicated peptides.

[2] = Direct HA-binding ELISA of biotinylated peptides on HA coated plates (Example 4); parameters: key to HA binding: absorbance (color) read at 450 nm; details: for HA binding: as repeated in tables 16, 18, 20; for HA direct binding (OD): optical density, summary tables 15, 17, 19
Protocol: Each of these peptides was biotinylated at its amino-terminus, and an AEEA spacer was included to separate the peptide sequence from the biotin molecule.
HA coated plates were purchased (ECHELON). Peptides were dissolved in 2 mM PBS to constant molarity, aliquoted and stored at −20° C. until used in assays. 7 kDa biotin-labeled RHAMM (SEQ ID NO: 1) was synthesized and used as a positive control in these assays. Biotin labeled peptides were added to the HA coated wells (n=3 replicates/peptide) at either 0.8 or 0.08 μM and then incubated with shaking overnight at 4° C. Wells were washed free of excess unbound peptides using 200 μl PBS (4 times). 100 μl of Streptavidin-HRP was then added to each well and the plate was incubated at room temperature for 1 hr. The plate was then washed with 200 μl PBS/well 4 times and TMB Liquid Substrate System for ELISA (Sigma) was added to each well, incubated for 5-10 min at room temperature and color read at 450 nm Plate Reader (BioTek, SYNERGY H4, Hybrid Reader).
Direct HA-binding results for the biotinylated equivalents of compounds 132 and 150-161 are show in FIG. 39, and results for compounds 265-268 and 275-278 are shown in FIG. 40.

[3] = Circular dichroism (CD) spectroscopy of linear and stapled peptides in water or 40% TFE/water (Example 3); format: physicochemical; details: for [0]208 mean residue ellipticity: λ = 208 nm; for [0]222 mean residue ellipticity: λ = 222 nm
Protocol: CD spectra were obtained on a Jasco J-810 spectropolarimeter and recorded in the range of 180-260 nm. Peptide solutions were prepared with a 0.1M phosphate buffer solution to a concentration of 0.5 mM. The measurements were performed in quartz cuvettes with a path length of 1 mm and a scanning speed of 10-50 nm/min. Five individual data points were averaged by the instrument in order to obtain the reported CD spectrum. The measurements were carried out at 20° C. A blank solution of 0.1M phosphate buffer solution was run before every measurement in order to baseline correct for any UV-interference observed from the buffer.
CD data for the 14- and 15-mer peptides containing HABD2 (VSKLRSQLVKRKQN, SEQ ID NO: 2) and HABD1 (NLKQKIKHVVKLKDE, SEQ ID NO: 4) and cyclized derivatives thereof in water or 40% TFE/water are provided below in Tables 8 (water) and 9 (40% TFE/water). Tables 8 and 9 provide the mean residue ellipicity ([θ] deg cm^2 dmol^−1) at λ=222 and 208 nm for each peptide and ratios of ellipticities at 222/208. Each of the peptides was acetylated at its amino terminus and amidated at its carboxy terminus.
CD data for linear peptides having the sequences […] (SEQ ID NO: 5) and […] (SEQ ID NO: 6) and cyclized derivatives thereof in water or 40% TFE/water are provided below in Tables 12 (water) and 13 (40% TFE/water). Tables 12 and 13 provide the mean residue ellipicity ([0] deg cm^2 dmol^−1) at λ=222 and 208 nm for each peptide and ratios of ellipticities at 222/208. Each of the peptides was acetylated at its amino terminus and amidated at its carboxy terminus.
Circular Dichroism (CD) spectroscopy is a tool that is used to study the secondary structure characteristics of a compound. Peptides and proteins can fold into organized structures, such as alpha helices and beta sheets, which are the result of complex hydrogen bonding and other interactions between amino acid side chains, as well as adopt a random coil formation, which lacks much of the organization of the other two structures. The CD spectrum of an alpha helix is characterized by two local minima at 208 nm and 222 nm. The ratio of the values of the molar ellipticities at these wavelengths ([θ]222/[θ]208) is a strong indication of the relative helicity of a compound; a compound is more helical when the ratio of these two values approaches 1.0. Synthetic constraints introduced to the peptide backbone can force a peptide chain to increase its helical character. These constraints can be introduced by staples, of varying types, which allow cyclization of the peptide backbone to take place.

[4] = [θ]222/[θ]208 ratio in water, summary tables 15, 17, 19
[5] = as repeated in tables 16, 18, 20

Substance | Inflammation (% Inhib.) [1] [% Inhib.] | HA binding [2] | HA direct binding (OD) [2] [OD] | [0]208 mean residue ellipticity at λ=208 nm ([3]; 40% TFE/water) | [0]222/[0]208 ratio of ellipticities ([3]; 40% TFE/water) | [0]222 mean residue ellipticity at λ=222 nm ([3]; 40% TFE/water) [deg cm^2 dmol^−1] | [θ]222/[θ]208 ratio of ellipticities [3, 4] | [θ]222/[θ]208 ratio of ellipticities [3, 5] | [0]208 mean residue ellipticity at λ=208 nm ([3]; water) [deg cm^2 dmol^−1] | [0]222/[0]208 ratio of ellipticities ([3]; water) | [0]222 mean residue ellipticity at λ=222 nm ([3]; water) [deg cm^2 dmol^−1] | [0]222/[0]208 ratio of ellipticities ([3]; in 40% TFE/water) | [0]222/[0]208 ratio of ellipticities ([3]; in water) | [0]208 mean residue ellipticity ([3]; in water) [deg cm^2 dmol^−1] | [0]222 mean residue ellipticity ([3]; in 40% TFE/water) [deg cm^2 dmol^−1] | [0]222 mean residue ellipticity ([3]; in water) [deg cm^2 dmol^−1] | alpha-helical character by CD (in words) ([3]; in water) | [0]208 mean residue ellipticity ([3]; in 40% TFE/water) [deg cm^2 dmol^−1]
Ac-(cyclo-10-14, cyclo-15-19)-KIKHVVKLK[EENSK][KKSEE]SKLRSQLVKRK-NH2 (Ac-KIKHVVKLKEENSKKKSEESKLRSQLVKRK-NH2; lactam 10-14, 15-19; SMILES CC[C@H](C)[C@H](NC(=O)[C@H](CCCCN)NC(C)=O)C(=O)N[C@@H](CCCCN)C(=O)N[C@@H](Cc1c[nH]cn1)C(=O)N[C@H](C(=O)N[C@H](C(=O)N[C@@H](CCCCN)C(=O)N[C@@H](CC(C)C)C(=O)N[C@@H](CCCCN)C(=O)N[C@H]1CCC(=O)NCCCC[C@@H](C(=O)N[C@H]2CCCCNC(=O)CC[C@@H](C(=O)N[C@@H](CO)C(=O)N[C@@H](CCCCN)C(=O)N[C@@H](CC(C)C)C(=O)N[C@@H](CCCNC(=N)N)C(=O)N[C@@H](CO)C(=O)N[C@@H](CCC(N)=O)C(=O)N[C@@H](CC(C)C)C(=O)N[C@H](C(=O)N[C@@H](CCCCN)C(=O)N[C@@H](CCCNC(=N)N)C(=O)N[C@@H](CCCCN)C(N)=O)C(C)C)NC(=O)[C@H](CCC(=O)O)NC(=O)[C@H](CO)NC(=O)[C@H](CCCCN)NC2=O)NC(=O)[C@H](CO)NC(=O)[C@H](CC(N)=O)NC(=O)[C@H](CCC(=O)O)NC1=O)C(C)C)C(C)C) [Compound 268] | 0 | 0.19 | 0.19 | -.304E04 deg cm^2 dmol^−1 | 0.83 | -2.54E04 | 0.40 | 0.40 | -6.74E+03 | 0.40 | -2.71E+03 | – | – | – | – | – | – | –
Ac-(cyclo-6,10)-NLKQK[EKHVK]KLKDE-NH2 (Ac-NLKQKEKHVKKLKDE-NH2; lactam 6-10; SMILES CC(=O)N[C@@H](CC(N)=O)C(=O)N[C@@H](CC(C)C)C(=O)N[C@@H](CCCCN)C(=O)N[C@@H](CCC(N)=O)C(=O)N[C@@H](CCCCN)C(=O)N[C@H]1CCC(=O)NCCCC[C@@H](C(=O)N[C@@H](CCCCN)C(=O)N[C@@H](CC(C)C)C(=O)N[C@@H](CCCCN)C(=O)N[C@@H](CC(=O)O)C(=O)N[C@@H](CCC(=O)O)C(N)=O)NC(=O)[C@H](C(C)C)NC(=O)[C@H](Cc2c[nH]cn2)NC(=O)[C@H](CCCCN)NC1=O) [Compound 159] | 0 | 0.009 | 0.009 | – | – | – | 0.44 | 0.44 | – | – | – | 0.85 | 0.44 | -5.95E+03 | -1.26E+04 | -2.61E+03 | – | –
Ac-NLKQKIKHVVKLKDENSQLKSEVSKLRSQLVKRKQN-NH2 [Compound 275] | 0 | 0.11 | 0.11 | -3.52E04 deg cm^2 dmol^−1 | 0.83 | -2.96E04 | 0.35 | 0.35 | -9.71E+03 | 0.35 | -3.35E+03 | – | – | – | – | – | – | –
Ac-(cyclo-5,9)-VSKL[ESQLK]KRKQN-NH2 (Ac-VSKLESQLKKRKQN-NH2; lactam 5-9; SMILES CC(=O)N[C@H](C(=O)N[C@@H](CO)C(=O)N[C@@H](CCCCN)C(=O)N[C@@H](CC(C)C)C(=O)N[C@H]1CCC(=O)NCCCC[C@@H](C(=O)N[C@@H](CCCCN)C(=O)N[C@@H](CCCNC(=N)N)C(=O)N[C@@H](CCCCN)C(=O)N[C@@H](CCC(N)=O)C(=O)N[C@@H](CC(N)=O)C(N)=O)NC(=O)[C@H](CC(C)C)NC(=O)[C@H](CCC(N)=O)NC(=O)[C@H](CO)NC1=O)C(C)C) [Compound 151] | – | 0.01 | 0.01 | – | – | – | 0.70 | 0.70 | – | – | – | 0.82 | 0.70 | -9.25E+03 | -1.33E+04 | -6.45E+03 | alpha-helical character equal to that of the linear peptide | -1.62E+04
Ac-(cyclo-7,11)-VSKLRS[ELVKK]KQN-NH2 (Ac-VSKLRSELVKKKQN-NH2; lactam 7-11; SMILES CC(=O)N[C@H](C(=O)N[C@@H](CO)C(=O)N[C@@H](CCCCN)C(=O)N[C@@H](CC(C)C)C(=O)N[C@@H](CCCNC(=N)N)C(=O)N[C@@H](CO)C(=O)N[C@H]1CCC(=O)NCCCC[C@@H](C(=O)N[C@@H](CCCCN)C(=O)N[C@@H](CCC(N)=O)C(=O)N[C@@H](CC(N)=O)C(N)=O)NC(=O)[C@H](CCCCN)NC(=O)[C@H](C(C)C)NC(=O)[C@H](CC(C)C)NC1=O)C(C)C) [Compound 153] | – | 0.08 | 0.08 | – | – | – | 0.54 | 0.54 | – | – | – | 0.74 | 0.54 | -6.79E+03 | -8.53E+03 | -3.68E+03 | decreased helicity | -1.02E+04
